Assay results: patent US7183387 (Genentech, dated 2007)

T1: human FcγRIIA-Arg131 α subunit extracellular domain-His6-GST fusion (human, UniProt P12318 34-217)
T1 construct: extracellular domain; also called FcγRIIA-R131; not shown: glutathione S transferase (GST)
T1 sequence: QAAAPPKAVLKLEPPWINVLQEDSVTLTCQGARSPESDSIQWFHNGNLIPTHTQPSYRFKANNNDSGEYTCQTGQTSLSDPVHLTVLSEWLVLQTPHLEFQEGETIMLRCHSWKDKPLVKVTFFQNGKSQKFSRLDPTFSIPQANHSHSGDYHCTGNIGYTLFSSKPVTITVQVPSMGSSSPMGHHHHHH

T2: human FcγRIIB α subunit extracellular domain-His6-GST fusion (human, UniProt P31994 43-217)
T2 construct: extracellular domain; also called CD32; not shown: glutathione S transferase (GST)
T2 sequence: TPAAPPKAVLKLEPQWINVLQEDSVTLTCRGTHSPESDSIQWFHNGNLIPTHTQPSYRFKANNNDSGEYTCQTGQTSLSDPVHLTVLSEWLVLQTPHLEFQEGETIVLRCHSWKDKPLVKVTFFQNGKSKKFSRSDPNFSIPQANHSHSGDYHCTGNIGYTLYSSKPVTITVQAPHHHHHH


Experiments:
[1] = target: T3, human FcγRIIIA-Phe158 α subunit extracellular domain-His6-GST fusion (human, UniProt P08637 17-208); assay: hexamer ELISA
T3 construct: extracellular domain; also called FcγRIIIA-F158; CD16; not shown: glutathione S transferase (GST)

[2] = target: T1, human FcγRIIA-Arg131 α subunit …; assay: hexamer ELISA
[3] = target: T2, human FcγRIIB α subunit extracellular …; assay: hexamer ELISA
[4] = target: T4, human neonatal Fc receptor (FcRn), biotinylated (human, UniProt P55899 24-297; P61769 21-119, biotinylated (biotin-X-NHS)); assay: FcRn ELISA, pH 6.0;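 note: Streptavidin-captured FcRn plates, IgG variants titrated 2 h at pH 6.0, peroxidase anti-human IgG read at 450 nm, variant over standard concentration at the standard curve mid-point absorbance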
T4 construct: captured on streptavidin plates
Method: FcRn Binding ELISA: For measuring FcRn binding activity of IgG variants, ELISA plates were coated with 2 µg/ml streptavidin (Zymed, South San Francisco) in 50 mM carbonate buffer, pH 9.6, at 4° C. overnight and blocked with PBS-0.5% BSA, pH 7.2 at room temperature for one hour. Biotinylated FcRn (prepared using biotin-X-NHS from Research Organics, Cleveland, Ohio and used at 1–2 µg/ml) in PBS-0.5% BSA, 0.05% polysorbate 20, pH 7.2, was added to the plate and incubated for one hour. Two fold serial dilutions of IgG standard (1.6–100 ng/ml) or variants in PBS-0.5% BSA, 0.05% polysorbate 20, pH 6.0, were added to the plate and incubated for two hours. Bound IgG was detected using peroxidase labeled goat F(ab')_2 anti-human IgG F(ab')_2 in the above pH 6.0 buffer (Jackson ImmunoResearch, West Grove, Pa.) followed by 3,3',5,5'-tetramethyl benzidine (Kirgaard & Perry Laboratories) as the substrate. Plates were washed between steps with PBS-0.05% TWEEN 20® at either pH 7.2 or 6.0. Absorbance was read at 450 nm on a Vmax plate reader (Molecular Devices, Menlo Park, Calif.). Titration curves were fit with a four-parameter nonlinear regression curve-fitting program (KaleidaGraph, Synergy software, Reading, Pa.). Concentrations of IgG variants corresponding to the mid-point absorbance of the titration curve of the standard were calculated and then divided by the concentration of the standard corresponding to the mid-point absorbance of the standard titration curve.

[5] = target: T5, human FcγRIA α subunit extracellular domain-His6-GST fusion (human, UniProt P12314 16-292); assay: FcγRI ELISA and THP-1 cells, averaged
T5 construct: extracellular domain; also called GST-FcγRIA; CD64; not shown: glutathione S transferase (GST)
T5 sequence (P12314 other isoform, or with tags, fused parts or gaps): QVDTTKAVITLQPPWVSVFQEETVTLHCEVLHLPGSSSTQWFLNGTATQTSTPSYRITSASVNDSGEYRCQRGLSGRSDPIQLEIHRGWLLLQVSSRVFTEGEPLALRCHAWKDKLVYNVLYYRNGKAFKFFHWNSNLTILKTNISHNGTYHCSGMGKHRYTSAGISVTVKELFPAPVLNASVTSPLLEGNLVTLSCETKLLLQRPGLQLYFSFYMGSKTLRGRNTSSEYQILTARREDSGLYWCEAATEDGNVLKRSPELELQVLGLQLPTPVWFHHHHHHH

T3 sequence (P08637 other isoform, or with tags, fused parts or gaps): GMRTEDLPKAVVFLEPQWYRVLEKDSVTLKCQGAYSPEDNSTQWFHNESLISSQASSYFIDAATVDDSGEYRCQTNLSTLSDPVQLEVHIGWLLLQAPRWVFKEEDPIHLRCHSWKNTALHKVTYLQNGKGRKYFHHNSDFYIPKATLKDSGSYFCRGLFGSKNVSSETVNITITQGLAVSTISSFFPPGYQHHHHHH

Row | Binder | ratio to native IgG1 [1] [ratio] | ratio to native IgG1 [2] [ratio] | ratio to native IgG1 [3] [ratio] | ratio to native IgG1 [4] [ratio] | ratio to native IgG1 [5] [ratio]
1 | anti-IgE E27 IgG1 Ala327Gln (antibody) heavy: not shown light: DIQLTQSPSSLSASVGDRVTITCRASKPVDGEGDSYLNWYQQKPGKAPKLLIYAASYLESGVPSRFSGSGSGTDFTLTISSLQPEDFATYYCQQSHEDPYTFGQGTKVEIKRTVAAPSVFIFPPSDEQLKSGTASVVCLLNNFYPREAKVQWKVDNALQSGNSQESVTEQDSKDSTYSLSSTLTLSKADYEKHKVYACEVTHQGLSSPVTKSFNRGEC | 0.06 | 0.13 | 0.14 | 0.97 | 0.6
2 | anti-IgE E27 IgG1 Ala339Thr (antibody) heavy: not shown light: DIQLTQSPSSLSASVGDRVTITCRASKPVDGEGDSYLNWYQQKPGKAPKLLIYAASYLESGVPSRFSGSGSGTDFTLTISSLQPEDFATYYCQQSHEDPYTFGQGTKVEIKRTVAAPSVFIFPPSDEQLKSGTASVVCLLNNFYPREAKVQWKVDNALQSGNSQESVTEQDSKDSTYSLSSTLTLSKADYEKHKVYACEVTHQGLSSPVTKSFNRGEC | 1.34 | 1.09 | 1.2 |  | 1.06
3 | anti-IgE E27 IgG1 Asp280Ala (antibody) heavy: not shown light: DIQLTQSPSSLSASVGDRVTITCRASKPVDGEGDSYLNWYQQKPGKAPKLLIYAASYLESGVPSRFSGSGSGTDFTLTISSLQPEDFATYYCQQSHEDPYTFGQGTKVEIKRTVAAPSVFIFPPSDEQLKSGTASVVCLLNNFYPREAKVQWKVDNALQSGNSQESVTEQDSKDSTYSLSSTLTLSKADYEKHKVYACEVTHQGLSSPVTKSFNRGEC | 1.09 | 1.34 | 1.6 | 0.82 | 1.04
4 | anti-IgE E27 IgG1 Asp312Ala (antibody) heavy: not shown light: DIQLTQSPSSLSASVGDRVTITCRASKPVDGEGDSYLNWYQQKPGKAPKLLIYAASYLESGVPSRFSGSGSGTDFTLTISSLQPEDFATYYCQQSHEDPYTFGQGTKVEIKRTVAAPSVFIFPPSDEQLKSGTASVVCLLNNFYPREAKVQWKVDNALQSGNSQESVTEQDSKDSTYSLSSTLTLSKADYEKHKVYACEVTHQGLSSPVTKSFNRGEC | 1.23 | 1.2 | 1.19 | 1.5 | 1.01
5 | anti-IgE E27 IgG1 Arg255Ala (antibody) heavy: not shown light: DIQLTQSPSSLSASVGDRVTITCRASKPVDGEGDSYLNWYQQKPGKAPKLLIYAASYLESGVPSRFSGSGSGTDFTLTISSLQPEDFATYYCQQSHEDPYTFGQGTKVEIKRTVAAPSVFIFPPSDEQLKSGTASVVCLLNNFYPREAKVQWKVDNALQSGNSQESVTEQDSKDSTYSLSSTLTLSKADYEKHKVYACEVTHQGLSSPVTKSFNRGEC | 0.98 | 1.3 | 1.59 | 0.59 | 0.99
6 | anti-IgE E27 IgG1 Arg301Ala (antibody) heavy: not shown light: DIQLTQSPSSLSASVGDRVTITCRASKPVDGEGDSYLNWYQQKPGKAPKLLIYAASYLESGVPSRFSGSGSGTDFTLTISSLQPEDFATYYCQQSHEDPYTFGQGTKVEIKRTVAAPSVFIFPPSDEQLKSGTASVVCLLNNFYPREAKVQWKVDNALQSGNSQESVTEQDSKDSTYSLSSTLTLSKADYEKHKVYACEVTHQGLSSPVTKSFNRGEC | 0.22 | 1.14 | 1.29 | 0.86 | 1.06
7 | anti-IgE E27 IgG1 Asn276Ala (antibody) heavy: not shown light: DIQLTQSPSSLSASVGDRVTITCRASKPVDGEGDSYLNWYQQKPGKAPKLLIYAASYLESGVPSRFSGSGSGTDFTLTISSLQPEDFATYYCQQSHEDPYTFGQGTKVEIKRTVAAPSVFIFPPSDEQLKSGTASVVCLLNNFYPREAKVQWKVDNALQSGNSQESVTEQDSKDSTYSLSSTLTLSKADYEKHKVYACEVTHQGLSSPVTKSFNRGEC | 0.95 | 1.29 | 1.34 | 1.15 | 1.05
8 | anti-IgE E27 IgG1 Asp265Ala (antibody, also called G14 D265A) heavy: not shown light: DIQLTQSPSSLSASVGDRVTITCRASKPVDGEGDSYLNWYQQKPGKAPKLLIYAASYLESGVPSRFSGSGSGTDFTLTISSLQPEDFATYYCQQSHEDPYTFGQGTKVEIKRTVAAPSVFIFPPSDEQLKSGTASVVCLLNNFYPREAKVQWKVDNALQSGNSQESVTEQDSKDSTYSLSSTLTLSKADYEKHKVYACEVTHQGLSSPVTKSFNRGEC | 0.09 | 0.07 | 0.13 | 1.23 | 0.16
9 | anti-IgE E27 IgG1 Asn286Ala (antibody) heavy: not shown light: DIQLTQSPSSLSASVGDRVTITCRASKPVDGEGDSYLNWYQQKPGKAPKLLIYAASYLESGVPSRFSGSGSGTDFTLTISSLQPEDFATYYCQQSHEDPYTFGQGTKVEIKRTVAAPSVFIFPPSDEQLKSGTASVVCLLNNFYPREAKVQWKVDNALQSGNSQESVTEQDSKDSTYSLSSTLTLSKADYEKHKVYACEVTHQGLSSPVTKSFNRGEC | 1.05 | 1.24 | 1.36 | 1.24 | 0.95

Now from value to binder:

Row | ratio to native IgG1 [1] [ratio] | ratio to native IgG1 [2] [ratio] | ratio to native IgG1 [3] [ratio] | ratio to native IgG1 [4] [ratio] | ratio to native IgG1 [5] [ratio] | Binder
10 | 1.07 | 1.15 | 1.3 | 0.76 | 0.99 | anti-IgE E27 IgG1 Asn315Ala (antibody) heavy: not shown light: DIQLTQSPSSLSASVGDRVTITCRASKPVDGEGDSYLNWYQQKPGKAPKLLIYAASYLESGVPSRFSGSGSGTDFTLTISSLQPEDFATYYCQQSHEDPYTFGQGTKVEIKRTVAAPSVFIFPPSDEQLKSGTASVVCLLNNFYPREAKVQWKVDNALQSGNSQESVTEQDSKDSTYSLSSTLTLSKADYEKHKVYACEVTHQGLSSPVTKSFNRGEC
11 | 0.55 | 0.8 | 0.68 | 1.45 | 1 | anti-IgE E27 IgG1 Asp376Ala (antibody) heavy: not shown light: DIQLTQSPSSLSASVGDRVTITCRASKPVDGEGDSYLNWYQQKPGKAPKLLIYAASYLESGVPSRFSGSGSGTDFTLTISSLQPEDFATYYCQQSHEDPYTFGQGTKVEIKRTVAAPSVFIFPPSDEQLKSGTASVVCLLNNFYPREAKVQWKVDNALQSGNSQESVTEQDSKDSTYSLSSTLTLSKADYEKHKVYACEVTHQGLSSPVTKSFNRGEC
12 | 0.89 | 0.27 | 0.17 | 0.81 | 0.95 | anti-IgE E27 IgG1 Arg292Ala (antibody, also called R292(309)A) heavy: not shown light: DIQLTQSPSSLSASVGDRVTITCRASKPVDGEGDSYLNWYQQKPGKAPKLLIYAASYLESGVPSRFSGSGSGTDFTLTISSLQPEDFATYYCQQSHEDPYTFGQGTKVEIKRTVAAPSVFIFPPSDEQLKSGTASVVCLLNNFYPREAKVQWKVDNALQSGNSQESVTEQDSKDSTYSLSSTLTLSKADYEKHKVYACEVTHQGLSSPVTKSFNRGEC
13 | 0.36 | 0.92 | 0.83 |  | 0.96 | anti-IgE E27 IgG1 Ala327Gly (antibody) heavy: not shown light: DIQLTQSPSSLSASVGDRVTITCRASKPVDGEGDSYLNWYQQKPGKAPKLLIYAASYLESGVPSRFSGSGSGTDFTLTISSLQPEDFATYYCQQSHEDPYTFGQGTKVEIKRTVAAPSVFIFPPSDEQLKSGTASVVCLLNNFYPREAKVQWKVDNALQSGNSQESVTEQDSKDSTYSLSSTLTLSKADYEKHKVYACEVTHQGLSSPVTKSFNRGEC
14 | 0.06 | 0.23 | 0.22 |  | 0.86 | anti-IgE E27 IgG1 Ala327Ser (antibody) heavy: not shown light: DIQLTQSPSSLSASVGDRVTITCRASKPVDGEGDSYLNWYQQKPGKAPKLLIYAASYLESGVPSRFSGSGSGTDFTLTISSLQPEDFATYYCQQSHEDPYTFGQGTKVEIKRTVAAPSVFIFPPSDEQLKSGTASVVCLLNNFYPREAKVQWKVDNALQSGNSQESVTEQDSKDSTYSLSSTLTLSKADYEKHKVYACEVTHQGLSSPVTKSFNRGEC
15 | 1.19 | 1.4 | 1.45 | 1.32 | 1.06 | anti-IgE E27 IgG1 Ala378Gln (antibody) heavy: not shown light: DIQLTQSPSSLSASVGDRVTITCRASKPVDGEGDSYLNWYQQKPGKAPKLLIYAASYLESGVPSRFSGSGSGTDFTLTISSLQPEDFATYYCQQSHEDPYTFGQGTKVEIKRTVAAPSVFIFPPSDEQLKSGTASVVCLLNNFYPREAKVQWKVDNALQSGNSQESVTEQDSKDSTYSLSSTLTLSKADYEKHKVYACEVTHQGLSSPVTKSFNRGEC
